Drawing on PMC12004944, this text covers SecA eluted from H6-PepV beads with Δspa lysate, percent less than with WT lysate for 1 substance.

The target in the test is N-terminal six-histidine-tagged PepV (H6-PepV) (S. aureus) (UniProt Q2FXH9). As to the kind of experiment: pull-down; purified His-tagged bait (H6-PepV or SecA-H6) incubated 1 h at 4°C with cleared lysate of S. aureus RN4220 WT or Δspa, then Ni-NTA resin; immunoblot with αSecA and αPepV sera. On the technique in general: In western blotting, separated proteins are transferred to a membrane and probed.
UniProt Q2FXH9, sequence (Q2FXH9 whole entry): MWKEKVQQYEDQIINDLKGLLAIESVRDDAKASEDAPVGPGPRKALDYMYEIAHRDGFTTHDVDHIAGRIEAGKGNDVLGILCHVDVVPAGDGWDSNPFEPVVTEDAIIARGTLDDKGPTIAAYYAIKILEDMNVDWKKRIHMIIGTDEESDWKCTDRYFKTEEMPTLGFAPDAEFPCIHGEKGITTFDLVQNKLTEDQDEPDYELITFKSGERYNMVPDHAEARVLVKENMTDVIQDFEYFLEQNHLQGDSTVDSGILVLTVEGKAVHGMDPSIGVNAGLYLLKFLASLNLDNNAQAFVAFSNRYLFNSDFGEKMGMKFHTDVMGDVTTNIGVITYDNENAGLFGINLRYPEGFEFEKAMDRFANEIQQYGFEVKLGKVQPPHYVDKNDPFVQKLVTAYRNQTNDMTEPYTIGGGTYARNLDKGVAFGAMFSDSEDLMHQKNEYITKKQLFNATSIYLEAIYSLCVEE

“SecA (endogenous, S. aureus RN4220) (from UniProt Q2YSH6 1-843) (natural protein)” had a SecA eluted from H6-PepV beads with Δspa lysate, percent less than with WT lysate of 30 % less.
